± gives the uncertainty stated by the source.
Experiment: self-splicing fitness, log relative to wild type (ln ratio); higher = more splicing; Tetrahymena group I intron in knt gene, E. coli kanamycin selection, DiMSum; sequences stand for … in CUCUCU…GGAGGGAAAAGUUAUCAGGCAUGCACCUGGUAGCUAGUCUUUAAACCAAUAGAUUGCAUCGGUUUAAAAGGCAAGACCGUCAAAUUGCGGGAAAGGGGUCAACAGCCGUUCAGUACCAAGUCUCAGGGGAAACUUUGAGAUGGCCUUGCAAAGGGUAUGGUAAUAAGCUGACGGACAUGGUCCUAACCACGCAGCCAAGUCCUAAGUCAACAGAUCUUCUGUUGAUAUGGAUGCAGUUCACAGACUAAAUGUCGGUCGGGGAAGAUGUAUUCUUCUCAUAAGAUAUAGUCGGACCUCUCCUUAAUGGGAGCUAGCGGAUGAAGUGAUGCAACACUGGAGCCGCUGGGAACUAAUUUGUAUGCGAAAGUAUAUUGAUUAGUUUUGGAGUACUCGUGGUCG
Procedure, shortened: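 DiMSum derived fitness as the error-weighted combination of fold changes across replicates, kanamycin versus no kanamycin, normalised to wild type. E. coli BL21(DE3) held the library, which randomised all eight P1ex-region intron nucleotides within the knt kanamycin-resistance gene on pET-22b(+). Six replicate transformations grew overnight at 37°C or 30°C on LB agar with or without 25 μg/mL kanamycin, also containing 100 μg/mL carbenicillin, 50 μM IPTG and 0.2% rhamnose, and pooled colonies were amplicon-sequenced on an Illumina HiSeq 2500.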

Sequence	self-splicing fitness (ln) (30 °C)	self-splicing fitness (ln) (37 °C)
AAGAAGCAAUAUUACGAGCA	-1.21 ± 0.12	-0.225 ± 0.1
AAGAAGCAAUAUUACGAGCC	-2.58 ± 0.2	-2.58 ± 0.29
AAGAAGCAAUAUUACGAUAU	-1.66 ± 0.11	-0.399 ± 0.12
AAGAAGCAAUAUUACGCAGG	-2.54 ± 0.14	-1.26 ± 0.14
AAGAAGCAAUAUUACGCAUG	-1.63 ± 0.13	-0.526 ± 0.13
AAGAAGCAAUAUUACGCGCC	-0.652 ± 0.13	-0.664 ± 0.2
AAGAAGCAAUAUUACGCUGG	-2.37 ± 0.2	-0.515 ± 0.2
AAGAAGCAAUAUUACGGAAA	-2.17 ± 0.19	-1.72 ± 0.2
AAGAAGCAAUAUUACGGACA	-1.66 ± 0.092	-0.389 ± 0.096
AAGAAGCAAUAUUACGGCGU	0.0118 ± 0.086	0.334 ± 0.11
AAGAAGCAAUAUUACGGGAU	-3.22 ± 0.22	-1.77 ± 0.18
AAGAAGCAAUAUUACGGGCC	-2.42 ± 0.22	-1.52 ± 0.21
AAGAAGCAAUAUUACGGGUG	-1.65 ± 0.072	-1.12 ± 0.086
AAGAAGCAAUAUUACGGUCG	-0.736 ± 0.073	-0.121 ± 0.1
AAGAAGCAAUAUUACGUAAG	-1.37 ± 0.069	-0.942 ± 0.083
AAGAAGCAAUAUUACGUGCU	-2.37 ± 0.087	-1.3 ± 0.082
AAGAAGCAAUAUUACGUGUA	-1.85 ± 0.11	-1.19 ± 0.092
AAGAAGCAAUAUUACGUUGU	-3.2 ± 0.1	-2.06 ± 0.11
AAGCAGCAAUAUUACGAAGC	-3.33 ± 0.29	-1.93 ± 0.27

Sequence	self-splicing fitness (ln) (30 °C)	self-splicing fitness (ln) (37 °C)
AAGCAGCAAUAUUACGAGCG	-1.12 ± 0.11	-0.344 ± 0.14
AAGCAGCAAUAUUACGAGCU	-1.2 ± 0.079	-0.815 ± 0.083
AAGCAGCAAUAUUACGAUGC	-1.38 ± 0.11	-0.411 ± 0.13
AAGCAGCAAUAUUACGAUUA	-1.4 ± 0.077	-0.962 ± 0.066
AAGCAGCAAUAUUACGCCAC	-2.93 ± 0.22	-2.72 ± 0.29
AAGCAGCAAUAUUACGCCCC	-0.65 ± 0.15	-0.107 ± 0.19
AAGCAGCAAUAUUACGCCGA	-1.64 ± 0.3	-1.61 ± 0.26
AAGCAGCAAUAUUACGCGAA	-1.77 ± 0.083	-1.2 ± 0.1
AAGCAGCAAUAUUACGCGAU	-3.31 ± 0.18	-3.25 ± 0.18
AAGCAGCAAUAUUACGCGGU	-3.08 ± 0.17	-2.55 ± 0.23
AAGCAGCAAUAUUACGCGUU	-2.2 ± 0.1	-1.99 ± 0.11
AAGCAGCAAUAUUACGCUCA	0.661 ± 0.12	-0.0809 ± 0.2
AAGCAGCAAUAUUACGGAAG	-3.51 ± 0.15	-1.35 ± 0.14
AAGCAGCAAUAUUACGGAGG	-3.79 ± 0.19	-2.53 ± 0.21
AAGCAGCAAUAUUACGGAUG	-3.17 ± 0.2	-2.57 ± 0.2
AAGCAGCAAUAUUACGGCAC	-0.574 ± 0.072	-0.149 ± 0.098
AAGCAGCAAUAUUACGGCAU	-0.221 ± 0.083	0.127 ± 0.1
AAGCAGCAAUAUUACGGCUU	-3.42 ± 0.14	-0.925 ± 0.12

Source: the supplement of paper PMC7877785
